Measured values as given in publication PMC11863921 (BMC Biology, 2025).

Experiments:
[1] = target: Acanthaster cf. solaris relaxin family peptide receptor/leucine-rich repeat G protein-coupled receptor 3, N-terminally modified (prolactin signal peptide, FLAG tag) (Acanthaster cf. solaris)
AsolRXFP/LGR3 = target: T1, AsolRXFP/LGR3 (Acanthaster planci, UniProt A0A8B7XXQ8); assay: CRE reporter gene assay in CHO cells stably expressing AsolRXFP/LGR3; assay type: cell-based, A. cf. solaris; details: CHO-AsolRXFP/LGR3 cells, increasing concentrations
T1 sequence (A0A8B7XXQ8 1-847): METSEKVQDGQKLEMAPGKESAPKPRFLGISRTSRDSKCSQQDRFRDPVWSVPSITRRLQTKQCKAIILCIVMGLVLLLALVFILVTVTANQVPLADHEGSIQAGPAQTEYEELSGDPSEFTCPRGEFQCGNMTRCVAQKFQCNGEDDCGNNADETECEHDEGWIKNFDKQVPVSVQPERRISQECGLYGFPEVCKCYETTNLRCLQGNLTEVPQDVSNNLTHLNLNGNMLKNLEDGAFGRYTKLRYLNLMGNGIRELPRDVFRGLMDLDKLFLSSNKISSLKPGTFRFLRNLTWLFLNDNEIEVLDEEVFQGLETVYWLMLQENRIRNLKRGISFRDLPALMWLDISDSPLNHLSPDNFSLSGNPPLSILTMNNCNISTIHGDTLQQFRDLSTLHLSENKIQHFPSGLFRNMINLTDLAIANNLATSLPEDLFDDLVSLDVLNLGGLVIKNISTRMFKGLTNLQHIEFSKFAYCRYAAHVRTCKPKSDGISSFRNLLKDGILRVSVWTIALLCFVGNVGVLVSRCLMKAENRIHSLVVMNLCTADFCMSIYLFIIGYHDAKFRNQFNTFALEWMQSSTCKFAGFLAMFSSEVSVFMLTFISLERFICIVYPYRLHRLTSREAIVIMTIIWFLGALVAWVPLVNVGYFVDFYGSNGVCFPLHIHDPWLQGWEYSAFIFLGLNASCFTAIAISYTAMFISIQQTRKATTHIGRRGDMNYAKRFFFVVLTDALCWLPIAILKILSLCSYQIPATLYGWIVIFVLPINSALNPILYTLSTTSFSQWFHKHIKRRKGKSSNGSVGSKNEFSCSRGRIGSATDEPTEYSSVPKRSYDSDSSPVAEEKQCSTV
Protocol: Human embryonic kidney (HEK) 293T cells were grown in complete Dulbecco’s modified Eagle medium (DMEM; Gibco) and Chinese hamster ovary (CHO) cells in complete DMEM/F12 (Gibco). Media was supplemented with 10% fetal bovine serum, 1% penicillin/streptomycin, and 1% L‐glutamine (complete media; All from Gibco). HEK-293T cells were transfected with LipofectAMINE 2000 (Invitrogen) and CHO cells with CHO TransIT and CHO-Mojo (Mirus), both according to the manufacturer’s instructions.
CHO and HEK293T cells stably expressing AsolRXFP/LGR3 were generated by lentiviral transduction. HEK293T cells were plated in 10 cm dishes for transfection with pLenti X1-Ef1α-COT-RXFP-like 2-IRES-GFP along with the lentiviral packaging and envelope plasmids pMDL, pRSV‐Rev, and pCMV‐VSV‐G, using Lipofectamine 2000. The following day, media containing lentivirus was harvested and filtered through a 0.45 μm syringe filter. Fresh CHO and HEK293T cells in 10 cm plates were transduced by replacing the cell culture media with the filtered media containing lentivirus, mixed with 4 μg/mL hexadimethrine bromide (Polybrene) to increase transduction efficiency. Three rounds of transduction were performed over 32 h, before cells were allowed to recover for three days in complete media. Transduced cells were sorted from non-transduced cells using the GFP reporter by fluorescence-activated cell sorting (FACS), using a Becton Dickinson FACSAria III as previously described. Single, live cells with low GFP expression were selected to represent low AsolRXFP/LGR3 expression and were subsequently grown to confluency in a T175 flask and cryopreserved.
The ability of the A. cf. solaris receptors to respond to A. cf. solaris RGP1 and RGP2 peptides was tested using a pCRE β-galactosidase reporter gene assay in CHO cells stably expressing AsolRXFP/LGR3 or HEK-293T cells transfected with AsolRXFP/LGR4 (long) or AsolRXFP/LGR4 (short), as described in detail previously. Importantly, the pCRE β-galactosidase reporter gene assay measures both Gs and Gq activation downstream of GPCR activation by monitoring CREB-mediated gene transcription. Cells were seeded in 96 well plates and were left to grow overnight at 37 °C in an incubator with 5% CO2. The next day the cells were transfected with different amounts of the pCRE reporter gene DNA [57] and/or pcDNA3.1 receptor constructs, as described above, and were left to grow overnight in an incubator. Triplicate wells in each plate were transfected with the equivalent amount of pCRE reporter gene DNA and pcDNA3.1 without a receptor-encoding insert as the background CRE activity control. The next day cells were exposed in triplicate wells to increasing concentrations of peptides diluted in media for 6 h at 37 °C in an incubator. Triplicate parallel wells contained 5 µM forskolin and blank media as positive and negative controls, respectively. At the end of the incubation period, the media was aspirated, and the plate was stored at − 80 °C until development. Plates were thawed for the development of β-galactosidase activity, as described previously, with absorbance being read at 570 nm on an Epoch 2 microplate reader. The data were analyzed as the percentage of the response induced by 5 µM forskolin and pooled followed by fitting to a three-parameter sigmoidal dose–response curve using GraphPad Prism 10. Experiments were performed at least three times with triplicate determinations in each assay (Additional file 17: Dataset S10).

[2] = target: Asterias rubens relaxin family peptide receptor/leucine-rich repeat G protein-coupled receptor 3 (isoform X2) (Asterias rubens)
[3] = target: modified ArubRXFP/LGR3 (N-terminal region with the predicted internal signal peptide replaced by the prolactin precursor signal peptide) (Asterias rubens)
[4] = test system: ovarian fragments of A. cf. solaris; assay: In vitro spawning assay with ovarian fragments of A. cf. solaris; details: 1 h, semi-quantitative
Text: Adult A. cf. solaris were collected from the Great Barrier Reef by Pacific Marine Group divers associated with the Great Barrier Reef Marine Park Authority (GBRMPA) before being transported to the University of the Sunshine Coast aquarium facility. Animals were briefly maintained in a re-circulating protein-skimmed and aerated saltwater system of approximately 1500 L. The animals used were approximately 25–55 cm in diameter and kept unfed for the duration of the experiment. The gender and ovarian maturation stage was determined by using a minor gonad tissue biopsy technique and, thereafter, animals were individually segregated in a flowthrough aerated tank filled with approximately 55 L of filtered seawater for a minimum of 24 h to recover and acclimatize.
AsoRGP1 and AsoRGP2 were synthesized as described previously. In addition, a modified form of AsoRGP2 was synthesized in which the N-terminal residue of the A-chain (glutamine, Q) was substituted with pyroglutamate (pQ), recognizing the possibility of this potential post-translational modification. […] In vitro spawning assays using ovarian fragments were performed following procedures described previously. In brief, the ovaries were excised and cut using scissors into small fragments containing only a few lobes. The ovarian fragments were then incubated in artificial seawater containing RGP-type peptides at a range of concentrations (2 × 10^−10–2 × 10^−6 M) for 1 h. As a control experiment, ovarian fragments were incubated in artificial seawater alone. The samples were examined to determine whether or not in vitro spawning had occurred and were scored as follows: (+ + +) spawning occurred and most oocytes had matured; (+ +) about 50% of oocytes had matured, ( +) a few oocytes had matured and ( −): no spawning occurred. […] Means ± standard error of mean (SEM) were determined from four separate assays using ovaries from four different animals.

For “Acanthaster cf. solaris relaxin-like gonad-stimulating peptide 1 (ligand)”, which pEC50 of CRE reporter gene activation in CHO-AsolRXFP/LGR3 cells [1] is on record?
The pEC50 of CRE reporter gene activation in CHO-AsolRXFP/LGR3 cells was 7.8 pEC50.

What about the potency (EC50) of CRE reporter gene activation in CHO-AsolRXFP/LGR3 cells [1] of the same substance?
The potency (EC50) of CRE reporter gene activation in CHO-AsolRXFP/LGR3 cells was 16 nM.

For “recombinant human relaxin-2 [H2 relaxin, reference compound]”, which “cAMP activity / CRE reporter gene activation” value (AsolRXFP/LGR3) is on record?
Its value is “No response”.

For “Asterias rubens relaxin-like gonad-stimulating peptide 2 (ligand)”, which EC50 of peptide-induced luminescence (GFP-apoaequorin G5A, chimeric G-protein GqS5) in CHO-K1 cells transfected with ArubRXFP/LGR3, 10^-14 to 10^-5 M [2] is on record?
Its EC50 of peptide-induced luminescence (GFP-apoaequorin G5A, chimeric G-protein GqS5) in CHO-K1 cells transfected with ArubRXFP/LGR3, 10^-14 to 10^-5 M is 383 nM.

And the EC50 of peptide-induced luminescence (GFP-apoaequorin G5A, chimeric G-protein GqS5) in CHO-K1 cells transfected with modified ArubRXFP/LGR3 [3]?
Its EC50 of peptide-induced luminescence (GFP-apoaequorin G5A, chimeric G-protein GqS5) in CHO-K1 cells transfected with modified ArubRXFP/LGR3 is 510 nM.

For “Acanthaster cf. solaris Relaxin-like gonad-stimulating peptide 2 modified with pyroglutamate replacing glutamine at the N-terminus of the A-chain [Asol-pQ-RGP2]”, which “relative potency in inducing shedding of mature eggs / spawning” value ([4]; compared with RGP1 or unmodified RGP2) is on record?
Its value is “less potent than AsolRGP1 and AsolRGP2”.

What about the “relative potency in inducing shedding of mature eggs / spawning” value ([4]; compared with RGP1 or unmodified RGP2, listed as Asol-pQ-RGP) of the same substance?
Its value is “less potent than unmodified AsolRGP2”.
